Target: ubiquitin (UniProt P0CG48)

## PRRSV DV PLP2_(385-578) V518S (domain or fragment)
  Kcat/Km of Ub-AMC hydrolysis in vitro (substrate Ub-AMC, R&D Systems; 0.5 μM enzyme; 25°C): 1100 M⁻¹ s⁻¹

## PRRSV DV PLP2_(385-578) V518S/V520A (domain or fragment)
  Kcat/Km of Ub-AMC hydrolysis in vitro (substrate Ub-AMC, R&D Systems; 1.0 μM enzyme; 25°C): 133 M⁻¹ s⁻¹

## PRRSV DV PLP2_(385-578) V520A (domain or fragment)
  Kcat/Km of Ub-AMC hydrolysis in vitro (substrate Ub-AMC, R&D Systems; 1.0 μM enzyme; 25°C): 190 M⁻¹ s⁻¹

## wt PRRSV DV PLP2_(385-578) (domain or fragment)
  Kcat/Km of Ub-AMC hydrolysis in vitro (substrate Ub-AMC, R&D Systems; 25°C): 5000 M⁻¹ s⁻¹

Source: article PMC10754444
